From US20090104178A1 (published 2009)

What follows are binders tested against Purified recombinant EV CrmD protein (ectromelia virus).

Row | Binder | Kd
1 | hCCL28 (ligand) chemokine: SEAILPIASSCCTEVSHHISRRLLERVNMCRIQRADGDCDLAAVILHVKRRRICVSPHNHTVKQWMKVQAAKKNGKGNVCHRKKHHGKRNSNRAHQGKHETYGHKTPY | 2.8 nM
2 | mCXCL14 (ligand) SKCKCSRKGPKIRYSDVKKLEMKPKYPHCEEKMVIVTTKSMSRYRGQEHCLHPKLQSTKRFIKWYNAWNEKRRVYEE | 3.2 nM
3 | hCXCL14 (ligand) chemokine: SKCKCSRKGPKIRYSDVKKLEMKPKYPHCEEKMVIITTKSVSRYRGQEHCLHPKLQSTKRFIKWYNAWNEKRRVYEE | 7.1 nM
4 | mCCL27 (ligand) LPLPSSTSCCTQLYRQPLPSRLLRRIVHMELQEADGDCHLQAVVLHLARRSVCVHPQNRSLARWLERQGKRLQGTVPSLNLVLQKKMYSHPQQQN | 8.5 nM
5 | mCCL25 (ligand) QGAFEDCCLGYQHRIKWNVLRHARNYHQQEVSGSCNLRAVRFYFRQKVVCGNPEDMNVKRAMRILTARKRLVHWKSASDSQTERKKSNHMKSKVENPNSTSVRSATLGHPRMVMMPRKTNN | 3.2 nM
6 | hCXCL13 (ligand) chemokine: VLEVYYTSLRCRCVQESSVFIPRRFIDRIQILPRGNGCPRKEIIVWKKNKSIVCVDPQAEWIQRMMEVLRKRSSSTLPVPVFKRKIP | 7.4 nM
